Read-outs that look alike come from different tables or passages of the source. Peptide text beside a SMILES is read from it.
What was measured:
[1] = target: human serum albumin (HSA) (Homo sapiens, UniProt P02768); conditions: for b value of Equation (I) (dissociation mode: b<0.241 single, b≥0.241 multiple) / Δλ (maximum layer thickness change amount, second information): peptide concentration per Table 5
[2] = cited from earlier work; for Isoelectric point: Table 5; for Isoelectric point pI: Table 1

Molecule | Koff (dissociation rate constant, first information) ([1]; pH 6.9) | Isoelectric point [2] | Isoelectric point pI [2] | other results
NC(N)=NCCC[C@H](NC(=O)[C@H](Cc1ccccc1)NC(=O)[C@@H]1CCCN1C(=O)[C@H](CO)NC(=O)[C@H](Cc1ccccc1)NC(=O)CNC(=O)[C@@H]1CCCN1C(=O)[C@@H]1CCCN1C(=O)[C@@H](N)CCCN=C(N)N)C(=O)O [Bradykinin] (H-RPPGFSPFR-OH) | 0.01721 s⁻¹ |  |  | 
(His) 3: HHH | 0.00257 s⁻¹ | 7 |  | b value of Equation (I) (dissociation mode: b<0.241 single, b≥0.241 multiple) ([1]; HSA sensor chip): 0.344; Δλ (maximum layer thickness change amount, second information) ([1]; HSA sensor chip): 0.027 nm
ACTH15: SEQ ID NO: 11, YSMEHFRWGKPVGKK (listed as Homo sapiens) | 0.01147 s⁻¹ | 10 | 10 | 
ACTH partial peptide at the 1-24 positions [ACTH24] |  |  | 10.6 | 
ACTH partial peptide at the 1-39 positions (SYSMEHFRWGKPVGKKRRPVKVYPNAGENESAEAFPLEF; listed as Homo sapiens) [ACTH39] |  |  | 9.3 | dissociation mode (third information) ([1]; HSA sensor chip, peptide map FIG. 6, peptide 2 μM): multiple dissociation mode
ACTH partial peptide at the 1-41 positions (GPSYSMEHFRWGKPVGKKRRPVKVYPNGAEDESAEAFPLEF; listed as Homo sapiens) [ACTH41] |  |  | 8.3 | 
Amyloid β40 peptide [AB40] |  | 5.3 | 5.3 | 
ELN 11mer: the 548 to 558th fragments of the amino acid sequence of elastin; SEQ ID NO: 20, GVPGLGVGAGV (listed as Homo sapiens) | 0.00016 s⁻¹ | 5.5 |  | b value of Equation (I) (dissociation mode: b<0.241 single, b≥0.241 multiple) ([1]; HSA sensor chip): 0; Δλ (maximum layer thickness change amount, second information) ([1]; HSA sensor chip): 0.043 nm
His-decapeptide (HHHHHHHHHH; Synthetic His decapeptide) [(His) 10] | 0.00073 s⁻¹ | 7.4 |  | 
IS 13mer: the 237 to 249th fragments of the amino acid sequence of HSA; SEQ ID NO: 21, AWAVARLSQRFPK (listed as Homo sapiens) | 0.01708 s⁻¹ | 12 |  | b value of Equation (I) (dissociation mode: b<0.241 single, b≥0.241 multiple) ([1]; HSA sensor chip): 0.756; Δλ (maximum layer thickness change amount, second information) ([1]; HSA sensor chip): 0.061 nm
Lys-decapeptide (KKKKKKKKKK; Synthetic Lys decapeptide) [(Lys) 10] | 0.0002 s⁻¹ | 11 |  | b value of Equation (I) (dissociation mode: b<0.241 single, b≥0.241 multiple) ([1]; HSA sensor chip): 0.669; Δλ (maximum layer thickness change amount, second information) ([1]; HSA sensor chip): 0.045 nm
amyloid β42 peptide [AB42] |  | 5.3 | 5.3 | 
arginine decapeptide [(Arg) 10] |  |  | 13 | 
brain natriuretic peptide [BNP] |  |  | 11 | 
dynorphin A (YGGFLRRIRPKLK; listed as Homo sapiens) |  | 11.7 | 11.7 | Koff (dissociation rate constant, first information) ([1]; HSA sensor chip, peptide concentration during measurement per Table 5 (1-1000 μM), 0.1 M sodium phosphate buffer pH 6.9): 0.00617 s⁻¹
fibrinogen α (DEAGSEADHEGTHSTKRGHAKSRPV; listed as Homo sapiens) |  |  | 6.3 | 
glucagon |  |  | 6.8 | 
histidine eicosa peptide (HHHHHHHHHHHHHHHHHHHH; Synthetic His eicosapeptide) [(His) 20] |  |  | 7.6 | 
inter-α-trypsin inhibitor heavy chain 4 (GESRNRNVHSGSTFFKYYLQGAKIPKPEASFS; listed as Homo sapiens) [ITIH4] |  |  | 9.8 | 
kininogen (HNLGHGHKHERDQGHGHQR; listed as Homo sapiens) | 0.00493 s⁻¹ | 8.8 | 8.8 | b value of Equation (I) (dissociation mode: b<0.241 single, b≥0.241 multiple) ([1]; HSA sensor chip): 1.093; Δλ (maximum layer thickness change amount, second information) ([1]; HSA sensor chip): 0.082 nm
Lysozyme (protein, listed as Homo sapiens) KVYGRCELAAAMKRLGLDNFRGYSLGNWVCAAKFESNFNTHATNRNTDGSTDYGILQINSRWWCNDGRTPGSRNLCNIPCSALLSSDTIASVNCAKKIVSDGNGMNAWVAWRKRCKGTDVNAWTRGCRL | 0.0066 s⁻¹ | 9.4 |  | b value of Equation (I) (dissociation mode: b<0.241 single, b≥0.241 multiple) ([1]; HSA sensor chip): 0.278; Δλ (maximum layer thickness change amount, second information) ([1]; HSA sensor chip): 0.12 nm

From US10976314B2, “Device, non-transitory computer-readable storage medium, and method for determining type of target peptide” (SYSMEX CORPORATION, priority 2014, dated 2021)
